Drawing on publication PMC5314372, this text covers stoichiometry N for 2 substances.

As a reminder, the stoichiometry N is the number of molecules, sites or subunits per partner or assembly.

Experiment [1] addresses bacteriophage ΦAB6 tailspike protein (bacteriophage ΦAB6). Briefly: SEC; analytical gel-filtration column, single peak; calibration curve of log MW versus Ve/V0 with five protein markers. (In general: In gel filtration, larger molecules generally elute earlier.)
Experiment [2] shares this target. Briefly: AUC; sedimentation at 20,000 rpm, Beckman XL-A, An-60 Ti rotor; 25 mM Tris-HCl, 300 mM NaCl, pH 8.0; analysed with SEDFIT.
Experiment [3] concerns the target N-terminally-truncated ΦAB6 tailspike protein (residues 136-699) (bacteriophage ΦAB6). In words: crystal structure; hanging-drop vapor diffusion at 20 °C; 1.0 M sodium malonate pH 7.0 or 0.9 M sodium citrate, 0.1 M sodium cacodylate pH 6.5; space group C2, one trimer in the asymmetric unit; free form and forms soaked with Ab-54149 polysaccharide.
The target is the same in experiment [4]. In words: AUC; sedimentation at 20,000 rpm, Beckman XL-A, An-60 Ti rotor; 25 mM Tris-HCl, 300 mM NaCl, pH 8.0; analysed with SEDFIT.

“bacteriophage ΦAB6 tailspike protein (enzyme)”: the stoichiometry N in experiment [1] and in experiment [2] was 3 throughout.

For “N-terminally-truncated ΦAB6 tailspike protein (residues 136-699) (domain or fragment)”, the stoichiometry N in experiment [3] and in experiment [4] was 3 in each case.
